Mean fluorescence (M) data for two substances are collected here from patent publication US20050106647A1.

Assay [1] concerns the target PA-BODIPY conjugate (Bacillus anthracis protective antigen conjugated to BODIPY FL) (Bacillus anthracis) (UniProt P13423).
The target is the same in assay [2]. The source holds these as a separate data set.

Like-named read-outs stand apart in the source and are kept apart here.

PA-BODIPY conjugate (Bacillus anthracis protective antigen conjugated to BODIPY FL) (Bacillus anthracis), sequence (P13423 30-764 limits assumed): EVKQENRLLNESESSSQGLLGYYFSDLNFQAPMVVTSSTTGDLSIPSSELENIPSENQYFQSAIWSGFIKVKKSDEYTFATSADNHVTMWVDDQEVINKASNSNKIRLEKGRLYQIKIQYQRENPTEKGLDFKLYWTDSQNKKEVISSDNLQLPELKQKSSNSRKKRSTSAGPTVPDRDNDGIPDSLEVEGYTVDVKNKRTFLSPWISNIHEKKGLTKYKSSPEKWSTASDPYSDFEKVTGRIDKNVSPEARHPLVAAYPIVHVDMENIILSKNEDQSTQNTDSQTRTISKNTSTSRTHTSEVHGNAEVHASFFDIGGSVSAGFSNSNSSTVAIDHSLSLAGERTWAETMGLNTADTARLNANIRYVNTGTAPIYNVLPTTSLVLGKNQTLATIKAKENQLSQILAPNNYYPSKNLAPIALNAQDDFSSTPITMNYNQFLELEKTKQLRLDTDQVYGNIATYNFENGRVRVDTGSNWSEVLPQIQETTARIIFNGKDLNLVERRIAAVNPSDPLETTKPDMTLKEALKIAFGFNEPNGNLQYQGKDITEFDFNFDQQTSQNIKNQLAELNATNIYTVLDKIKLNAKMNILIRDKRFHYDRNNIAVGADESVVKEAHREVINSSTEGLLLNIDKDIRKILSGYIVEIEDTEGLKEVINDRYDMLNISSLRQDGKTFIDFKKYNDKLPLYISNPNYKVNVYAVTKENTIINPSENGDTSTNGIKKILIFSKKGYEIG
NlpA-[Dig scFv] (26-10 anti-digoxin/digoxigenin scFv) fusion anchored on the E. coli inner membrane, sequence (P04846 whole entry, looked up, the tested form may be a part): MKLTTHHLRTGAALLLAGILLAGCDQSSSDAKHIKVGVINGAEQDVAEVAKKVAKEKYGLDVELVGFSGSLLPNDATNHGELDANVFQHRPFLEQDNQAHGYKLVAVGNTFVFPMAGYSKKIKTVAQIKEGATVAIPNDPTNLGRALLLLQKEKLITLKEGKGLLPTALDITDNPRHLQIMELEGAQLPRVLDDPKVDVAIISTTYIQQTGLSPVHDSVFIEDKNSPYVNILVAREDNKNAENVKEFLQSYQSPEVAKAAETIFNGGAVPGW
26-10 anti-digoxin/digoxigenin scFv-g3p fusion (pAK200), sequence (P69168 268-424): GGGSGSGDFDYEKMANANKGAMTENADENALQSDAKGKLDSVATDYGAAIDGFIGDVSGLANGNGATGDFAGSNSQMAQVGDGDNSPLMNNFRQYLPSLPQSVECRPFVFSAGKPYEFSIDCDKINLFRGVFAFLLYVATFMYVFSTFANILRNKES

In assay [1], “26-10 anti-digoxin/digoxigenin scFv-g3p fusion (pAK200) (from UniProt P69168 268-424)” yielded a mean fluorescence (M) of 7.25.

As for “NlpA-[Dig scFv] (26-10 anti-digoxin/digoxigenin scFv) fusion anchored on the E. coli inner membrane (from UniProt P04846 24-29)”, the mean fluorescence (M) in assay [1] was found to be 4.48; in assay [2], 2.97.
